From article PMC2138355

Biological target: fourth component of human complement (C'4) (human)
Assay: sucrose density gradient ultracentrifugation

- s rate of C'2 in mixtures with C'4 (pH 5): 7.7 S
- s rate of C'2 in mixtures with C'4 (pH 8): 13.5 S
Substance: C'2 oxidized by treatment with a critical concentration of iodine (oxyC'2) (natural protein)
